Data as given in US20200270588A1, “GLUCOSYL TRANSFERASE POLYPEPTIDES AND METHODS OF USE” (Syngenta Participations AG, priority 2017, published 2020).
Substitutions are numbered along the chain they refer to. Names and notes keep the numbering of the source.

T1: Zea mays bx9 glucosyl transferase (C-terminally his tagged SEQ ID NO: 1) (Zea mays, UniProt B4G072)
T1 construct: His tag (C); made in house; host or cells: E. coli BL21 (DE3), pET24a
T1 sequence (B4G072 1-462): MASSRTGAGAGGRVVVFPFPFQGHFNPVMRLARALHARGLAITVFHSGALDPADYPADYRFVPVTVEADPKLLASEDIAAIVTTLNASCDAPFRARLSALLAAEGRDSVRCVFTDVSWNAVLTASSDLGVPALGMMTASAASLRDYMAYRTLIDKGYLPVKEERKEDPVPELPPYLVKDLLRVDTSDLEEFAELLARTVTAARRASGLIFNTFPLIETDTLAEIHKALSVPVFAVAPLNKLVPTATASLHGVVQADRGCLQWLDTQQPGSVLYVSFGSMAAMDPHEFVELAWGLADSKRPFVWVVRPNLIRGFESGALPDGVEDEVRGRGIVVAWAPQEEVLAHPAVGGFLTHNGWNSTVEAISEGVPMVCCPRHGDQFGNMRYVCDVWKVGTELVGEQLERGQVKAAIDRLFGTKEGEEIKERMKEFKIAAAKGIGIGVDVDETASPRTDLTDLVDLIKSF

B1: I363M: bx9 SEQ ID NO:1 mutant (protein)
chain: T1 sequence (B4G072 1-462) with I363M
modifications: Zea mays
B2: L143M: bx9 SEQ ID NO:1 mutant (protein)
chain: T1 sequence (B4G072 1-462) with L143M
modifications: Zea mays
B3: F19M: bx9 SEQ ID NO:1 mutant (protein)
chain: T1 sequence (B4G072 1-462) with F19M
modifications: Zea mays
B4: T220P: bx9 SEQ ID NO:1 mutant (protein)
chain: T1 sequence (B4G072 1-462) with T220P
modifications: Zea mays
B5: T220W: bx9 SEQ ID NO:1 mutant (protein)
chain: T1 sequence (B4G072 1-462) with T220W
modifications: Zea mays
B6: T220F: bx9 SEQ ID NO:1 mutant (protein)
chain: T1 sequence (B4G072 1-462) with T220F
modifications: Zea mays
B7: A202S: bx9 SEQ ID NO:1 mutant (protein)
chain: T1 sequence (B4G072 1-462) with A202S
modifications: Zea mays
B8: G376M: bx9 SEQ ID NO:1 mutant (protein)
chain: T1 sequence (B4G072 1-462) with G376M
modifications: Zea mays
B9: T220H: bx9 SEQ ID NO:1 mutant (protein)
chain: T1 sequence (B4G072 1-462) with T220H
modifications: Zea mays
B10: V199M: bx9 SEQ ID NO:1 mutant (protein)
chain: T1 sequence (B4G072 1-462) with V199M
modifications: Zea mays
B11: G376L: bx9 SEQ ID NO:1 mutant (protein)
chain: T1 sequence (B4G072 1-462) with G376L
modifications: Zea mays
B12: L143Y: bx9 SEQ ID NO:1 mutant (protein)
chain: T1 sequence (B4G072 1-462) with L143Y
modifications: Zea mays
B13: A202T: bx9 SEQ ID NO:1 mutant (protein)
chain: T1 sequence (B4G072 1-462) with A202T
modifications: Zea mays

System: not listed separately
Experiment: UDP luminescence plate assay of E. coli extracts, saturation mutants of SEQ ID NO: 1, herbicide V
Type: biochemical, Zea mays
Conditions: improvement factor relative to w/t bx9 = 1.0, rounded to nearest 0.5; extract activity basis; compound V
With B1 the “Most Preferred amino acid substitutions and (IF) based on RLU/min/ul” value was “L,M(3.0)”. With B2 the “Preferred amino acid substitutions and (IF) based on RLU/min/ul” value was “M,Y(1.0)”. In the case of B3, the “Preferred amino acid substitutions and (IF) based on RLU/min/ul” value is reported as “M(1.0)”. With B4 the “Most Preferred amino acid substitutions and (IF) based on RLU/min/ul” value was “H,P(4.0)”. In the case of B5, the “Most Preferred amino acid substitutions and (IF) based on RLU/min/ul” value is reported as 3.5. With B6 the “Most Preferred amino acid substitutions and (IF) based on RLU/min/ul” value was 3.5. With B7 the “Preferred amino acid substitutions and (IF) based on RLU/min/ul” value was “S,I,C,M(1.0)”. With B8 the “Preferred amino acid substitutions and (IF) based on RLU/min/ul” value was “C,M(1.0)”. For B9, the “Most Preferred amino acid substitutions and (IF) based on RLU/min/ul” value was “H,P(4.0)”. For B10, the “Preferred amino acid substitutions and (IF) based on RLU/min/ul” value was “M,N(1.0)”. In the case of B11, the “Most Preferred amino acid substitutions and (IF) based on RLU/min/ul” value is reported as “L(2.0)”. With B12 the “Preferred amino acid substitutions and (IF) based on RLU/min/ul” value was “M,Y(1.0)”. For B13, the “Preferred amino acid substitutions and (IF) based on RLU/min/ul” value was “T,I,V,L,F(1.5)”.

Target: T1, Zea mays bx9 glucosyl transferase (C-terminally his tagged SEQ ID NO: 1)
Experiment: UDP-Glo glucosyl transferase assay, purified enzyme
Type: biochemical
Conditions: 0.5 mM UDP-glucose, 25 C, pH 7.5; DMSO reagent blank as control
Procedure: Glucosyl transferase activity is assayed via measurement of acceptor substrate-dependent production of UDP from ultrapure UDP-glucose using the Promega UDP-Glo™ method and according to the manufacturer's instructions. Assays are run in 96 well microtiter plates.
Enzyme, typically at a stock concentration of ˜2 mg/ml is diluted to an appropriate concentration in 50 mM K^+ Hepes buffer at pH7.5 containing 0.5 mg/mL bovine serum albumin (BSA) and 5 ul aliquots of this diluted enzyme added to each well of a Perkin Elmer white ½ area 96 well plate. […] Assays are run for an appropriate time (usually 10 to 60 min) so that the amount of UDP formed lies within the most nearly linear part of the UDP standard curve and are stopped with the addition and mixing of 25 ul UDP-Glo™ detection reagent (prepared as described below). Plates are then incubated at room temperature for 60 minutes and then read in a luminescence plate reader (Perkin Elmer Envision 2130 Multilabel Reader). A UDP standard curve is run alongside each set of assays and reagent blank control assays run with DMSO in place of test herbicide. Typically, 300 pmol of UDP corresponds to a Relative Luminescence Unit (RLU) reading of about 1.5E7 and the response curve between 0 and 600 pmol is fitted to a polynomial function (see for example FIG. 2).
The UDP-Glo™ reagents are made up and used according to the manufacturer's instructions. Thus, Nucleotide Detection Buffer and ATP are combined to make nucleotide detection reagent (NDR) dispensed into aliquots and frozen to be freshly thawed before use.
Km and kcat values in respect of UDP-glucose are derived by carrying out experiments to measure initial rates over a suitable range of concentrations of UDP glucose out at a fixed near saturating concentration of acceptor substrate. Best fit values of kcat, Km and kcat/Km are obtained by direct fitting of the data to the Michaelis-Menten equation using Graphpad Prism™ software.
For `COc1ccc2c(c1)OC(O)C(=O)N2O` (stereo not shown) [DIMBOA, 2,4-dihydroxy-7-methoxy-1,4-benzoxazin-3-one], the kcat was 20.82 s⁻¹.

System: not listed separately
Experiment: UDP luminescence plate assay of E. coli extracts, mutants of SEQ ID No: 1, 2 mM metribuzin
Type: biochemical, Zea mays
Conditions: 2 mM metribuzin
Method in brief: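 Extracts of E. coli BL21 DE3 expressing C-terminally His-tagged SEQ ID NO:1 variants incubated with 2 mM metribuzin; UDP formed read by UDP-Glo luminescence against a UDP standard curve, with optional 95 C stop. Mutants ranked by metribuzin/DMSO signal ratio and signal increase over wild-type bx9.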
In the case of B3, the “SIGNAL: metribuzin signal of mutant divided by metribuzin signal of w/t bx9” value is reported as 0.86.

Same assay, conditions: 2 mM metribuzin vs DMSO control, same mutant
For B1, the “RATIO of the metribuzin signal to the DMSO signal” value (from here on “RATIO of the metribuzin signal”) was 0.90. For B2, the “RATIO of the metribuzin signal” value was 1.04. With B7 the “RATIO of the metribuzin signal” value was 0.94. In the case of B8, the “RATIO of the metribuzin signal” value is reported as 1.13. For B10, the “RATIO of the metribuzin signal” value was 1.02. With B11 the “RATIO of the metribuzin signal” value was 0.99.

Same assay, conditions: 2 mM metribuzin; H24A null background 1.00E+05 not subtracted
With B3 the “luminescence signal with metribuzin” value was 1.07E+05.

Same assay, conditions: 2 mM metribuzin; relative to bx9 w/t
In the case of B1, the “SIGNAL: metribuzin signal of mutant divided by the signal of w/t bx9” value is reported as 1.67. For B2, the “SIGNAL: metribuzin signal of mutant divided by the signal of w/t bx9” value was 1.02. For B3, the “SIGNAL: metribuzin signal of mutant divided by the signal of w/t bx9” value was 0.99. For B4, the “SIGNAL: metribuzin signal of mutant divided by the signal of w/t bx9” value was 1.57. In the case of B5, the “SIGNAL: metribuzin signal of mutant divided by the signal of w/t bx9” value is reported as 1.59. In the case of B6, the “SIGNAL: metribuzin signal of mutant divided by the signal of w/t bx9” value is reported as 2.22. In the case of B7, the “SIGNAL: metribuzin signal of mutant divided by the signal of w/t bx9” value is reported as 0.91. With B8 the “SIGNAL: metribuzin signal of mutant divided by the signal of w/t bx9” value was 1.13. For B9, the “SIGNAL: metribuzin signal of mutant divided by the signal of w/t bx9” value was 1.82. With B10 the “SIGNAL: metribuzin signal of mutant divided by the signal of w/t bx9” value was 0.92. With B11 the “SIGNAL: metribuzin signal of mutant divided by the signal of w/t bx9” value was 1.27. With B12 the “SIGNAL: metribuzin signal of mutant divided by the signal of w/t bx9” value was 1.06. For B13, the “SIGNAL: metribuzin signal of mutant divided by the signal of w/t bx9” value was 0.93.

Same assay, conditions: mutants of SEQ ID No: 1; DMSO in place of metribuzin (background UDP-glucose hydrolysis)
In the case of B1, the “luminescence signal in the DMSO control” value is reported as 5.22E+05. In the case of B2, the “luminescence signal in the DMSO control” value is reported as 2.74E+05. In the case of B3, the “luminescence signal in the DMSO control” value is reported as 1.92E+05. For B4, the “luminescence signal in the DMSO control” value was 5.28E+05. With B5 the “luminescence signal in the DMSO control” value was 4.99E+05. In the case of B6, the “luminescence signal in the DMSO control” value is reported as 7.87E+05. For B7, the “luminescence signal in the DMSO control” value was 2.70E+05. In the case of B8, the “luminescence signal in the DMSO control” value is reported as 2.80E+05. With B9 the “luminescence signal in the DMSO control” value was 5.47E+05. In the case of B10, the “luminescence signal in the DMSO control” value is reported as 2.53E+05. For B11, the “luminescence signal in the DMSO control” value was 3.59E+05. With B12 the “luminescence signal in the DMSO control” value was 2.77E+05. With B13 the “luminescence signal in the DMSO control” value was 2.52E+05.

Same assay, conditions: mutants of SEQ ID No: 1 in E. coli extracts; 2 mM metribuzin; UDP luminescence
With B1 the “luminescence signal observed with 2 mM metribuzin” value (“luminescence signal observed” for short) was 4.68E+05. With B2 the “luminescence signal observed” value was 2.86E+05. With B3 the “luminescence signal observed” value was 2.76E+05. With B4 the “luminescence signal observed” value was 4.40E+05. In the case of B5, the “luminescence signal observed” value is reported as 4.44E+05. For B6, the “luminescence signal observed” value was 6.21E+05. For B7, the “luminescence signal observed” value was 2.53E+05. For B8, the “luminescence signal observed” value was 3.15E+05. For B9, the “luminescence signal observed” value was 5.08E+05. In the case of B10, the “luminescence signal observed” value is reported as 2.58E+05. With B11 the “luminescence signal observed” value was 3.56E+05. With B12 the “luminescence signal observed” value was 2.98E+05. For B13, the “luminescence signal observed” value was 2.61E+05.
